Test results: patent US9808434B2, “Compound for treating cancer and diabetes” (CITY OF HOPE, priority 2011, dated 2017)

Substrate: O=C(Nc1cc(Cl)cc(Cl)c1)Nc1cc(Cl)cc(Cl)c1
Experiment: Kinetics of GST-P using COH-SR4 as a substrate
Type: biochemical
Conditions: other: COH-SR4 as substrate, 1 mM GSH, pH 6.5, 340 nm, 37.0 °C
Experimental: The cDNA of GSTP was cloned into the prokaryotic expression plasmid vector, pET30a(+) (Novagen), creating the GSTP-pET30a(+) plasmid free of extraneous sequences. Bam H1 and Xhol restriction sites were used for cloning. This plasmid was transfected into E. coli BL21 (DE3). Protein was expressed in E. coli BL21 (DE3) grown at 37° C. Once the OD600 reached 0.6 protein was induced with 0.4 mM IPTG.
All purification steps were carried out at 4° C. unless otherwise specified. All buffers were prepared fresh and filter sterilized. Briefly, bacteria was lysed in 10 mM K-PO4 buffer pH 7.0 containing 1.4 mM β-mercaptoethanol (Buffer A) and 100 μM PMSF followed by sonication at 50 rpm for 3 times at 30 sec each. […] The supernatant was mixed with GSH-affinity resin for coupling for overnight at 4° C. The unbound proteins were washed with Buffer B until OD at 280 nm is zero. Bound protein (purified GSTP) was eluted with 50 mM Tris-HCl, pH 9.6 containing 1.4 mM β-mercaptoethanol. Elutes protein was dialyzed against Buffer A for overnight and the GSTP protein concentration was checked by Bradford's assay.
Reaction systems were prepared by mixing COH-SR4 (50 μL, various final concentrations of 0˜10 μM), 100 μL of 10 mM GSH (GSH solution in GST assay buffer, pH 6.5), 10 μL of GSTP enzyme (0.52 mg/mL) and having 840 μL GST assay buffer (100 mM K-PO4 buffer, pH 6.5). […]

B1: GST-P (Homo sapiens) (protein)
chain: MPPYTVVYFPVRGRCAALRMLLADQGQSWKEEVVTVETWQEGSLKASCLYGQLPKFQDGDLTLYQSNTILRHLGRTLGLYGKDQQEAALVDMVNDGVEDLRCKYISLIYTNYEAGKDDYVKALPGQLKPFETLLSQNQGGKTFIVGDQISFADYNLLDLLLIHEVLAPGCLDAFPLLSAYVGRLSARPKLKAFLASPEYVNLPINGNGKQ
notes: made in house; host or cells: E. coli BL21 (DE3)
  Km: 40 µM
